Target: Pak2 kinase (UniProt Q13177)
Test: cell-based or functional assay

Chain of UniProt Q13177 (Q13177 2-524 limits assumed): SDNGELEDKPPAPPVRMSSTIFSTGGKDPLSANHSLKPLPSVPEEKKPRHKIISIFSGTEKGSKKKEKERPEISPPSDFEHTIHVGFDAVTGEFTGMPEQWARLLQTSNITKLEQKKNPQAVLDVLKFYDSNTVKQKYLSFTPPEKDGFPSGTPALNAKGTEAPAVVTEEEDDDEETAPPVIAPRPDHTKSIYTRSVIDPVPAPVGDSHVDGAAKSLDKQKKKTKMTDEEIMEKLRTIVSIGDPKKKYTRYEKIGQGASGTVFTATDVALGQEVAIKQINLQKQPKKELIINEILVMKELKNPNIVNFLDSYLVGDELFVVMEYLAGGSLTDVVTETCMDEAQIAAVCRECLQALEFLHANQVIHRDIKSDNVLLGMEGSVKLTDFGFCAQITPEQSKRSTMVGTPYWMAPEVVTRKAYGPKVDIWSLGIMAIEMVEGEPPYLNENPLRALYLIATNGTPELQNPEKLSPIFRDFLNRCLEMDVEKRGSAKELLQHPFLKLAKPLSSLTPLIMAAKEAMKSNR

HIV-1 Nef protein, wild type (Nef from HIV-1 Clade B)
phosphorylation of the Pak2 kinase at S55, quantitative phosphoproteomics of NALM6-stimulated CAR T cells, Nef-WT compared to NefAxxA: 2.15 log2Fc | phosphorylation of the Pak2 kinase at S152, quantitative phosphoproteomics of NALM6-stimulated CAR T cells, Nef-WT compared to NefAxxA: 1.17 log2Fc

From EP4683932A2
